Values quoted from earlier work, collected in publication PMC5956149.
pKd: −log10 of the molar value.

Target: CheA (Escherichia coli) (UniProt P07363)
Details: cited from earlier work

## CheA (from UniProt P07363)
  pKd: 6.40
